Test results published in paper PMC4115230, “Lipid–Protein Nanodiscs Offer New Perspectives for Structural and Functional Studies of Water-Soluble Membrane-Active Peptides” (Acta Naturae, 2014).

Key:
[1] = test system: LPN/POPC/DOPS (4 : 1); assay: NMR titration binding isotherm with LPN/POPC/DOPS (4 : 1) nanodiscs; conditions: for binding to LPNs: POPC/DOPS, 4 : 1, 1D 1H-NMR titration, pH 7.0
Method: (§1) The recombinant 44–243 fragment of the human apolipoprotein A1 with a N-terminal sequence of six His residues was used as an MSP protein. The purified MSP protein, obtained as described in [20], was mixed at a molar ratio of 1 : 75 with lipids in the presence of a detergent, sodium cholate (2 : 1 cholate/lipids molar ratio), and the mixture was incubated at 4 °C for 3 h. When using saturated lipids (DLPC, DLPG), the reaction temperature was kept not lower than 25 °C. Spontaneous LPN assembly was initiated by detergent sorption to the Bio-Beads™ resin (Bio-Rad, USA) for 1.5 h. Purification of the nanodiscs was performed on a Ni^2+ Sepharose 6 Fast Flow resin (GE Healthcare, USA) equilibrated with buffer A (20 mM Tris-HCl, 0.5 M NaCl, 1 mM NaN3, pH 8.0). After loading the reaction mixture, the resin was washed with a fivefold volume of buffer A. LPNs were eluted with buffer A containing 100 mM imidazole. The MSP concentration was determined spectrophotometrically by absorbance at λ = 280 nm. The LPN concentration was determined by assuming that each nanodisc contained two MSP molecules.
(§2) NMR spectra were acquired at 40–45 °C on AVANCE -700 and AVANCE -III-800 spectrometers (Bruker, Germany) equipped with cryogenically cooled triple-resonance probes at the proton resonance frequencies of 700 and 800 MHz, respectively.
(§3) To measure the isotherms of the toxins binding to LPNs and MSP molecules, the VSTx1 and NT II samples ([…], 10 mM Tris-Ac, pH 7.0) were titrated with solutions of nanodiscs (70 μM) of various lipid compositions or with a MSP solution (0.7 mM). The 1D 1H-NMR spectrum was acquired at each point. A data analysis was performed assuming that the intensity of the observed NMR signals of a peptide is proportional to its equilibrium concentration in solution ([P]free). The binding curves were fitted either to the partition equilibrium equation (1) or to the Langmuir isotherm equation (2), taking into account the dilution of the initial samples upon titration:
(§4) where [LPN/lipid] is the LPN concentration (assuming that one nanodisc contains two MSP molecules) or the lipid concentration (assuming that one nanodisc contains 150 lipid molecules), [P]boundis the concentration of a peptide bound to LPN ([P]0 = [P]free+ [P]bound), Kpis the partition coefficient, n is the number of binding sites for a peptide on the nanodisc surface, and Knis the affinity constant of the peptide to the binding site on the nanodisc surface.

[2] = test system: MSP (44-243 fragment of human apolipoprotein A1); assay: NMR titration binding isotherm with MSP; conditions: MSP without lipids; 1D 1H-NMR titration, 10 mM Tris-Ac, pH 7.0
Method: as §1
(§5) NMR spectra were acquired at 40–45 °C on AVANCE -700 and AVANCE -III-800 spectrometers (Bruker, Germany) equipped with cryogenically cooled triple-resonance probes at the proton resonance frequencies of 700 and 800 MHz, respectively. […]

[3] = test system: LPN/POPC; assay: NMR titration binding isotherm with LPN/POPC nanodiscs; conditions: POPC, 1D 1H-NMR titration, 10 mM Tris-Ac, pH 7.0
Method: as §1, §5

[4] = test system: LPN/POPC/DOPG (3 : 1); assay: NMR titration binding isotherm with LPN/POPC/DOPG (3 : 1) nanodiscs; conditions: 10 mM Tris-Ac; for binding to LPNs: POPC/DOPG, 3 : 1, 1D 1H-NMR titration, pH 7.0
Method: as §1, §2, §3, §4

[5] = test system: muscle-type nicotinic acetylcholine receptor; conditions: blocks ligand binding sites with its central loop; ref [36]; cited from earlier work
From the text: Neurotoxin II (NT II) is a cationic non-hydrophobic peptide which is stabilized by four disulfide bonds and has the so-called “three-loop” β-structure fold characteristic for snake toxins (Fig. 1). […] It blocks, with its central loop, the ligand binding sites located on the receptor extracellular domain [36]. Unlike VSTx1, NT II has no explicit membrane activity. At the same time, the ^1H,^15N-, and ^31P-NMR spectroscopy investigation of NT II in the environment of DOPC/ DOPS/cholesterol (3 : 1 : 1) ...

[6] = test system: LPN/POPC/DOPS (4 : 1); assay: Paramagnetic relaxation enhancement from 5-DSA in 2D 1H,15N-TROSY; assay type: binding; conditions: 5-DSA 10, 30 and 75 μM; 45 μM 2H,15N-NT II, 75 μM LPN/POPC/DOPS (4 : 1), pH 7.0
Method: (§6) The interaction of NT II with LPN was studied using a sample containing 45 μM ^2H,^15N-NT II, and 75 μM LPN/POPC/DOPS (4 : 1) (10 mM Tris-Ac, pH 7.0). To identify the peptide HN-groups making contacts with the nanodisc surface, the ^1H signal of choline group of the POPC lipid ((CH3)3N^+-, chemical shift is 3.2 ppm) was saturated at a frequency of 125 Hz for 0.1, 0.3, 0.5, 0.8, 1.0, 1.5, and 3.0 s using a relaxation delay of 3 s. […] To identify the peptide HN-groups making contacts with the hydrophobic region of the nanodisc membrane, the paramagnetic probe of 5-doxyl-stearic acid (5-DSA) was used. 5-DSA dissolved in a small amount of methanol was added to the sample containing NT II/LPN complexes to a final concentration of 10, 30, and 75 μM. […] The rates of the cross-correlation process between the dipole-dipole relaxation and relaxation arising from the chemical shift anisotropy of the ^15N nucleus (ηXY) were measured for the complexes of NT II with LPN/POPC/DOPS at 40 °C on an AVANCE -III-800 spectrometer, using amplitude modulated 2D ^1H,^15NTR OSY experiments. The rotational correlation time (τR) for the peptide HN-groups was calculated from the measured ηXY values.

[7] = test system: LPN/POPC/DOPS (4 : 1); assay: Saturation of POPC choline signal (NOE magnetization transfer) in 2D 1H,15N-TROSY; assay type: binding; conditions: 45 μM 2H,15N-NT II, 75 μM LPN/POPC/DOPS (4 : 1), 10 mM Tris-Ac, pH 7.0
Method: as §6

[8] = test system: LPN/POPC/DOPS (4 : 1); assay: Topology of NT II on nanodisc membrane (combined NOE and PRE data); assay type: binding; conditions: fast exchange on the NMR scale
Method: as §6

[9] = test system: LPNs; assay: Gel filtration analysis of LPNs after peptide addition (nanodisc integrity, particle size); assay type: physicochemical; conditions: Superdex-200, 10 mM Tris-HCl, 0.1 M NaCl
Method: was carried out on a Superdex-200 resin using a Tricorn 5/200 column (GE Healthcare, Sweden) in buffer (10 mM Tris-HCl, 0.1 M NaCl, 1 mM EDTA, 1 mM NaN3, pH 7.4). Thyroglobulin (669 kDa, Stokes radius RH = 8.5 nm), ferritin (440 kDa, RH = 6.1 nm), catalase (232 kDa, RH = 5.22 nm), aldolase (158 kDa, RH = 4.81 nm) BSA (67 kDa, RH = 3.55 nm), and ovalbumin (43 kDa, RH = 3.05 nm) were used as calibration proteins. The flow rate through the column was 0.3 ml/min. Detection was performed at 280 nm. The particle size was determined from the elution volume vs the lgRH calibration curve. All the particle size (diameter) values provided below correspond to twice RH values. ;

[10] = test system: LPN/POPC/DOPS (4 : 1); assay: 15N cross-correlation relaxation rates (ηXY) of NT II in complex with LPN; assay type: physicochemical
Method: as §2, §6

B1: neurotoxin II (peptide)
chain: LECHNQQSSQPPTTKTCSGETNCYKKWWSDHRGTIIERGCGCPKVKPGVNLNCCRTDRCNN
modifications: not fully specified; ends and bridges not checked; also: 2H,15N-labeled
With B1 the “selectivity for membranes containing different anionic lipids (phosphatidylserine and phosphatidylglycerol)” value ([1]; LPN/POPC/DOPS (4 : 1) compared with LPN/POPC/DOPG (3 : 1)) was “lack of significant NT II selectivity”, the “binding to LPNs” value ([1]; 10 mM Tris-Ac) was “low affinity” and the “binding to LPNs” value ([1]; 10 mM Tris-Ac, listed as NTII) was “comparatively low affinity”. The “Kp(LPN, MSP×2), partition coefficient” value ([1]; partition equilibrium (eq. 1), LPN concentration as non-aqueous phase, 10 mM Tris-Ac, pH 7.0, 40–45 °C, no added salt) was 0.16 ± 0.01 ×10^6·M^-1, the “Kp(Lipids), partition coefficient” value ([1]; partition equilibrium (eq. 1), lipid concentration as non-aqueous phase (150 lipids per nanodisc), 10 mM Tris-Ac, pH 7.0, 40–45 °C, no added salt) was 1.07±0.07 ×10^3·M^-1 and the “interaction with MSP” value [2] was “absence of nonspecific toxin interactions with the MSP protein”. For the same molecule, the “binding to LPNs” value [3] was “lack of detectable binding”, the “binding to LPNs” value ([3]; listed as NTII) was “does not bind” and the “binding to LPNs” value [4] was “low affinity”. For the same molecule, the “binding to LPNs” value ([4]; listed as NTII) was “comparatively low affinity”, the “Kp(LPN, MSP×2), partition coefficient” value ([4]; partition equilibrium (eq. 1), LPN concentration as non-aqueous phase, pH 7.0, 40–45 °C, no added salt) was 0.32 ± 0.01 ×10^6·M^-1 and the “Kp(Lipids), partition coefficient” value ([4]; partition equilibrium (eq. 1), lipid concentration as non-aqueous phase (150 lipids per nanodisc), pH 7.0, 40–45 °C, no added salt) was 2.13 ± 0.07 ×10^3·M^-1. For the same molecule, the “inhibition of muscle-type nicotinic acetylcholine receptor” value [5] was “highly specific inhibitor”, the “residues with maximum attenuation of HN-signal intensities (PRE)” value [6] was “Thr21 residue of the toxin “head” and for residues of the third and second loops” and the “toxin regions with drop of cross-peak intensity on POPC choline saturation” value [7] was 1) in the toxin “head”, near the putative binding site for phosphatidylserine, and 2) in the central (second) loop, at the level of Trp27, Trp28, and Ile35 residues. For the same molecule, the “orientations on the nanodisc surface” value [8] was “several (at least two) orientations”, the “orientations on the nanodisc surface” value ([8]; listed as NTII) was “several orientations” and the nanodisc disruption ([9]; 1 mM EDTA, pH 7.4, 280 nm) was “no disruption of nanodiscs”. For the same molecule, the “diameter of unbound toxin” value ([9]; pH 7.4, diameter = 2 RH) was ~ 2.6 nm, the “ηXY, cross-correlation rates of 15N nuclear relaxation, range” value ([10]; 2H,15N-NT II in complex with LPN/POPC/DOPS, 800 MHz, 40 °C) was 2.5 to 40 Hz and the “diameter of globular particle corresponding to mean τR” value ([10]; calculated from mean τR) was ~ 5.4 nm. For the same molecule, the “mass of globular particle corresponding to mean τR” value ([10]; calculated from mean τR) was ~ 34 kDa, the “rotational correlation time τR, range” value ([10]; calculated from ηXY, NT II in complex with LPN/POPC/DOPS, 40 °C) was 2 to 31 ns and the “rotational correlation time τR, mean” value ([10]; calculated from ηXY, mean, NT II in complex with LPN/POPC/DOPS, 40 °C) was ~ 12.5 ns. The “ηXY, cross-correlation rates of 15N nuclear relaxation, mean” value ([10]; mean value, 2H,15N-NT II in complex with LPN/POPC/DOPS, 800 MHz, 40 °C) was 16.3 ± 9.2 Hz.
